Laboratory results as given in article PMC3172369 (Biochemistry, 2011).

Key:
native gel or EMSA = biological target: the molecule itself; test: native gel or EMSA
crystal structure = biological target: the molecule itself; test: crystal structure

B1: Np-core labelled at Cys41 with a DyLight dye (domain or fragment, Xenopus laevis, UniProt P05221 11-124, looked up)
chain: LEKPVSLIWGCELNEQDKTFEFKVEDDEEKCEHQLALRTVCLGDKAKDEFNIVEIVTQEEGAEKSVPIATLKPSILPMATMVGIELTPPVTFRLKAGSGPLYISGQHVAMEEDY
modifications: DyLight 549-maleimide or DyLight 649-maleimide on Cys41
stoichiometry N (native gel or EMSA): 5

B2: human Npm2-core domain (T15-E122) (domain or fragment, UniProt Q86SE8 15-122, looked up)
chain: TTVLWGCELSQERRTWTFRPQLEGKQSCRLLLHTICLGEKAKEEMHRVEILPPANQEDKKMQPVTIASLQASVLPMVSMVGVQLSPPVTFQLRAGSGPVFLSGQERYE
stoichiometry N (crystal structure): 5
